Experimental findings from patent US20070149456A1, “Epithelial sodium channel inhibiting agents and uses therefor” (University of Pittsburgh, priority 2005, published 2007) are described below.

Assay [1] has as its target T1, endogenous ENaC in HAE cells (Homo sapiens, UniProt P37088+P51168+P51170).
T1 construct: endogenous in cells; host or cells: primary human airway (bronchial) epithelial cells from transplant or donor lungs
In words: Amiloride-sensitive short circuit current in primary human airway epithelial (HAE) cell monolayers, Ussing chamber. The settings on record: HAE. In kind it is cell-based. The text has this:
Primary Cultures of HAE Cells—HAE cells were obtained from excess pathological tissue remaining after lung transplantation or from organ donor lungs deemed not suitable for transplantation under a protocol approved by the University of Pittsburgh […] Review Board. All cells were isolated from second through sixth generation bronchi and grown on permeable Transwell supports (Coming Inc.) as previously described (Devor, D. C., and Pilewski, J. M. (1999), UTP inhibits Na^+ absorption in wild-type and DeltaF508 CFTR-expressing human bronchial epithelia, Am. J. Physiol. 276, C827-C837 31. ).
(§1) Short Circuit Current Measurements—Cell culture inserts were mounted in modified Ussing chambers (Harvard Apparatus, Holliston, Mass.), and the monolayers were continuously short-circuited with a voltage/current clamp system (Physiologic Instruments, San Diego, Calif.). A 2-mV bipolar pulse was applied periodically to measure the resistance of the monolayer. As previously described by Bridges et al. (Bridges, R. J., Newton, B. B., Pilewski, J. M., Devor, D. C., Poll, C. T., and Hall, R. L. (2001), Na+ transport in normal and CF human bronchial epithelial cells is inhibited by BAY 39-9437, Am. J. Physiol. 281, L16-L23 32, Na^+ transport in normal and CF human bronchial epithelial cells is inhibited by BAY 39-9437), the bath solution contained (in mM) 120 NaCl, 25 NaHCO3, 3.3 KH2PO4, 0.8 K2HPO4, 1.2 MgCl2, 1.2 CaCl2, and 10 glucose. The pH of this solution was 7.4 when gassed with a mixture of 95% O2-5% CO2 at 37° C.
Primary cultures of HAE cells grown on permeable membrane supports and mounted in modified Ussing chambers were continuously short-circuited by a voltage clamp amplifier (Physiologic Instruments, San Diego, Calif.). Monolayers were exposed to increasing concentrations of either the γ-peptide (closed circles) or a scrambled peptide (open circles). […] (n=8-9).
Vectors and Cell Culture—Wild-type, C-terminal and double epitope tagged mouse ENaC subunit cDNAs were previously described (Hughey, R. P., Mueller, G. M., Bruns, J. B., Kinlough, C. L., Poland, P. A., Harkleroad, K. L., Carattino, M. D., and Kleyman, T. R. (2003) J Biol Chem 278, 37073-37082 and Ahn, Y. J., Brooker, D. R., Kosari, F., Harte, B. J., Li, J., Mackler, S. A., and Kleyman, T. R. (1999), Cloning and functional expression of the mouse epithelial sodium channel, Am J Physiol 277, F121-129). The γ subunit mutations were generated in pcDNA3.1 (+) using a standard two-step PCR method. A cDNA clone (IMAGE #: 3600399) encoding full length mouse prostasin was obtained from Open Biosystems (Huntsville, Ala.) and sub-cloned into pcDNA3.1 (+) (Invitrogen, Carlsbad, Calif.). MDCK type 1 cells were a gift from Barry M. Gumbiner (Memorial Sloan-Kettering Cancer Center, New York) and were cultured as previously described (Lavelle, J. P., Negrete, H. O., Poland, P. A., Kinlough, C. L., Meyers, S. D., Hughey, R. P., and Zeidel, M. L. (1997), Low permeabilities of MDCK cell monolayers: a model barrier epithelium, Am J Physiol 273, F67-75). CCD (mpkCCDc14) cells were a gift from Alain Vandewalle (Institut National de la Santéet de la Recherche Médicale, Paris, France) and were cultured as previously described (Bens, M., Vallet, V., Cluzeaud, F., Pascual-Letallec, L., Kahn, A., Rafestin-Oblin, M. E., Rossier, B. C., and Vandewalle, A. (1999) J Am Soc Nephrol 10, 923-934). HAE cells were isolated and cultured as described (Devor, D. C., Bridges, R. J., and Pilewski, J. M. (2000), Pharmacological modulation of ion transport across wild-type and DeltaF508 CFTR-expressing human bronchial epithelia, Am J Physiol Cell Physiol 279, C461-479). […]

Assay [2] concerns the target T2, endogenous ENaC in mpkCCDc14 cells (Mus musculus, UniProt Q61180+Q9WU38+Q9WU39).
T2 construct: endogenous ENaC in a mouse cortical collecting duct (mpkCCDc14) cell line; endogenous in cells; host or cells: mpkCCDc14 mouse cortical collecting duct cell line
In words: Amiloride-sensitive short circuit current in mpkCCDc14 monolayers, Ussing chamber. In kind it is cell-based. The settings on record: mpkCCDc14, increasing concentrations of peptide. As to the method:
mpkCCDc14 Cell Culture—mpkCCDc14 cells were grown as previously reported (Bens, M., Vallet, V., Cluzeaud, F., Pascual-Letallec, L., Kahn, A., Rafestin-Oblin, M. E., Rossier, B. C., and Vandewalle, A. (1999), Corticosteroid-dependent sodium transport in a novel immortalized mouse collecting duct principal cell line, J. Am. Soc. Nephrol. 10, 923-934). mpkCCDc14 cells were subcultured onto permeable filter supports coated with collagen (0.4-μm pore size, 1-cm^2 surface area, Snapwell filters; Coming Inc., Acton, Mass.). Cells were kept on filters for at least 4 days in defined medium (Bens, M., Vallet, V., Cluzeaud, F., Pascual-Letallec, L., Kahn, A., Rafestin-Oblin, M. E., Rossier, B. C., and Vandewalle, A. (1999) J. Am. Soc. Nephrol. 10, 923-934 30) that was changed every second day. At least 24 h prior to the experiments, the culture medium was replaced with a minimal medium (without drugs or hormones) that contained only Dulbecco's modified Eagle's medium and Ham's F-12.
as §1
(FIG. 6A) mpkCCDc14cells cultured on permeable membrane supports and mounted in a modified Ussing chamber were continuously short-circuited by a voltage clamp amplifier (Physiologic Instruments, San Diego, Calif.). Transepithelial resistance was monitored by applying a 4 mV bipolar pulse every 60 seconds. Where indicated, a 43 residue peptide corresponding to E144-K186 of mouse γ-ENaC (γ-peptide) was added to the apical chamber at a final concentration of 3 μM. […] Data presented as mean +/−standard error (n=8).
Vectors and Cell Culture—Wild-type, C-terminal and double epitope tagged mouse ENaC subunit cDNAs were previously described (Hughey, R. P., Mueller, G. M., Bruns, J. B., Kinlough, C. L., Poland, P. A., Harkleroad, K. L., Carattino, M. D., and Kleyman, T. R. (2003) J Biol Chem 278, 37073-37082 and Ahn, Y. J., Brooker, D. R., Kosari, F., Harte, B. J., Li, J., Mackler, S. A., and Kleyman, T. R. (1999), Cloning and functional expression of the mouse epithelial sodium channel, Am J Physiol 277, F121-129). The γ subunit mutations were generated in pcDNA3.1 (+) using a standard two-step PCR method. A cDNA clone (IMAGE #: 3600399) encoding full length mouse prostasin was obtained from Open Biosystems (Huntsville, Ala.) and sub-cloned into pcDNA3.1 (+) (Invitrogen, Carlsbad, Calif.). MDCK type 1 cells were a gift from Barry M. Gumbiner (Memorial Sloan-Kettering Cancer Center, New York) and were cultured as previously described (Lavelle, J. P., Negrete, H. O., Poland, P. A., Kinlough, C. L., Meyers, S. D., Hughey, R. P., and Zeidel, M. L. (1997), Low permeabilities of MDCK cell monolayers: a model barrier epithelium, Am J Physiol 273, F67-75). CCD (mpkCCDc14) cells were a gift from Alain Vandewalle (Institut National de la Santéet de la Recherche Médicale, Paris, France) and were cultured as previously described (Bens, M., Vallet, V., Cluzeaud, F., Pascual-Letallec, L., Kahn, A., Rafestin-Oblin, M. E., Rossier, B. C., and Vandewalle, A. (1999) J Am Soc Nephrol 10, 923-934).

The target of assay [3] is T2, endogenous ENaC in mpkCCDc14 cells. Described as above. In kind it is cell-based. The settings on record: peptide 50 μM.
Assay [4] has as its target wild-type αβγ mouse epithelial sodium channel (ENaC) expressed in Xenopus oocytes (mouse, UniProt Q9WU38 1-638). In words: cell-based or functional assay.
The target in assay [5] is endogenous ENaC in the mouse cortical collecting duct cell line mpkCCDc14 (mouse, UniProt Q9WU38 1-638). In words: cell-based or functional assay.
The target in assay [6] is endogenous ENaC in primary cultures of human airway epithelial (HAE) cells (human, UniProt P51168 1-640). In words: cell-based or functional assay.
Chain of endogenous ENaC in primary cultures of human airway epithelial (HAE) cells (chain, as listed by the source, chain 1 of 3): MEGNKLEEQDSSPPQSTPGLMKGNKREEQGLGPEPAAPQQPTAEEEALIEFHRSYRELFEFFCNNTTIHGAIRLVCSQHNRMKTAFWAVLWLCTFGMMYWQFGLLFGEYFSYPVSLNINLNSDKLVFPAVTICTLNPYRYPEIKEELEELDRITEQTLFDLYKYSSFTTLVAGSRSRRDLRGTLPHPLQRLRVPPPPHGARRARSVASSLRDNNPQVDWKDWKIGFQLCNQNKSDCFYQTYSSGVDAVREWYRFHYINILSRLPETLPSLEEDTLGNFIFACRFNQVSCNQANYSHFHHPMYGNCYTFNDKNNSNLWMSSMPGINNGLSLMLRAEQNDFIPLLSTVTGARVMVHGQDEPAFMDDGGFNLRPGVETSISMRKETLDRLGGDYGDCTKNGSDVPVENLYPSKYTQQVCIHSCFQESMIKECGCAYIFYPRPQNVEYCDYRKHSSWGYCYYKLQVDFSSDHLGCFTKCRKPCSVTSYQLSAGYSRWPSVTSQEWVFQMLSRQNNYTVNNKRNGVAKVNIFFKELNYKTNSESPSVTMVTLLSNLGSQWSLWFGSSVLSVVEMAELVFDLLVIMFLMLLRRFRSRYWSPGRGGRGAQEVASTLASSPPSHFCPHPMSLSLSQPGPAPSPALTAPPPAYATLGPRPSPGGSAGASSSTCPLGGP
Chain of endogenous ENaC in primary cultures of human airway epithelial (HAE) cells (P51168 whole entry, chain 2 of 3): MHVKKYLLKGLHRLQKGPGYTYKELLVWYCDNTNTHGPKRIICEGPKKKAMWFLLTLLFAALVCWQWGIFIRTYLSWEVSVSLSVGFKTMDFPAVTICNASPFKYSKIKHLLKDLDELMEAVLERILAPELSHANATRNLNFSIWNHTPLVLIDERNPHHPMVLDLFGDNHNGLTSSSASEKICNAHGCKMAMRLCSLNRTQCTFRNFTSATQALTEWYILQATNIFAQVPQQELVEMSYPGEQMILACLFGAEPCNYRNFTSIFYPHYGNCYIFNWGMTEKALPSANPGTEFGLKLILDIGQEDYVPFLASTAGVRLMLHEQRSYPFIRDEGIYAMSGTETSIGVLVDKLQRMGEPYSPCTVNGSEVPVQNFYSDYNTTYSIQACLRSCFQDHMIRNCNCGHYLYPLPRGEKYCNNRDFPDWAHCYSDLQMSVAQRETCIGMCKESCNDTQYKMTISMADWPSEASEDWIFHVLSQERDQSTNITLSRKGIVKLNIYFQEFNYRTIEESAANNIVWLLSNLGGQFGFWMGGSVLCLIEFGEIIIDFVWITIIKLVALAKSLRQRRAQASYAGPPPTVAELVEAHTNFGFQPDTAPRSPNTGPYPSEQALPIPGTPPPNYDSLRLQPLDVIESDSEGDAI
Chain of endogenous ENaC in primary cultures of human airway epithelial (HAE) cells (chain, as listed by the source, chain 3 of 3): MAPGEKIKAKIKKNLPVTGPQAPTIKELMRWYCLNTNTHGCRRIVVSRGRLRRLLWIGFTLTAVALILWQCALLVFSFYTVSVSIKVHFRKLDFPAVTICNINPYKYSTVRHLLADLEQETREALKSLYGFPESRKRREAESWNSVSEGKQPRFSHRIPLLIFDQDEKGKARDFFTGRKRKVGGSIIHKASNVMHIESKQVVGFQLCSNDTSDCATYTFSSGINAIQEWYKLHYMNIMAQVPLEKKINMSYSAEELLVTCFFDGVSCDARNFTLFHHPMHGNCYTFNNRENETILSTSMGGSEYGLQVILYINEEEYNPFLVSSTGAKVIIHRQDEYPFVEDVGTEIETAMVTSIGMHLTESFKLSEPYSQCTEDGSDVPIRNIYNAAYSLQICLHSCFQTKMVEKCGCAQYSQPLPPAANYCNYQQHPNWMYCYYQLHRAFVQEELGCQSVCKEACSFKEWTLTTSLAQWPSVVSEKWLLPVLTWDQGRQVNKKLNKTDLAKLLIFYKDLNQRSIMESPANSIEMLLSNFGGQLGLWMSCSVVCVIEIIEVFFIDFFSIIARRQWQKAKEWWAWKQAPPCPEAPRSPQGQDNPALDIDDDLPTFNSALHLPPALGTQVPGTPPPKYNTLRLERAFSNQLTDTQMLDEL

Entries after “also recorded” stand apart in the source; their conditions may differ.

T1 sequence (P37088 1-178): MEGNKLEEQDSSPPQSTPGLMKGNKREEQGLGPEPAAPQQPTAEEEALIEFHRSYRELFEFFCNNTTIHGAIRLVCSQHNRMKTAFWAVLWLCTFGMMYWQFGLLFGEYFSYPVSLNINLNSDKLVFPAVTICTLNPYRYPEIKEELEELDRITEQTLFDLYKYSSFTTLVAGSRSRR
T1 sequence (P37088 205-669): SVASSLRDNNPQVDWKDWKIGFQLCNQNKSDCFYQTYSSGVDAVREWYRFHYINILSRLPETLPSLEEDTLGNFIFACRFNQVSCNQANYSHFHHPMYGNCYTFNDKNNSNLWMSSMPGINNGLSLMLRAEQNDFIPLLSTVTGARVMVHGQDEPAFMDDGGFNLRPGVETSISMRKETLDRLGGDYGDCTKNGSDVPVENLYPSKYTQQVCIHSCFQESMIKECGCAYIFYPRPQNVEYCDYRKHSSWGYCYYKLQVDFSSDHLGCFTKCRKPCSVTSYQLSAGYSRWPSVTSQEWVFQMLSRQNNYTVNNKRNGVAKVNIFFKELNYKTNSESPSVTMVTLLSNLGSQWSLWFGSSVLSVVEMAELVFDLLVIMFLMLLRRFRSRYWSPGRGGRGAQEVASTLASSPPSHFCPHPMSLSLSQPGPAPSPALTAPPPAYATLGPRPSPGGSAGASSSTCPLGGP
T1 sequence (P51168 whole entry): as the sequence (P51168 whole entry, chain 2 of 3) above
T1 sequence (P51170 1-138): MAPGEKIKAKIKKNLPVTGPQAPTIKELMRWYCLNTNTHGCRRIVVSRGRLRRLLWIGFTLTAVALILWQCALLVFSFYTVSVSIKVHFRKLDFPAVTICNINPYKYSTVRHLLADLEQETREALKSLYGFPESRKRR
T1 sequence (P51170 182-649): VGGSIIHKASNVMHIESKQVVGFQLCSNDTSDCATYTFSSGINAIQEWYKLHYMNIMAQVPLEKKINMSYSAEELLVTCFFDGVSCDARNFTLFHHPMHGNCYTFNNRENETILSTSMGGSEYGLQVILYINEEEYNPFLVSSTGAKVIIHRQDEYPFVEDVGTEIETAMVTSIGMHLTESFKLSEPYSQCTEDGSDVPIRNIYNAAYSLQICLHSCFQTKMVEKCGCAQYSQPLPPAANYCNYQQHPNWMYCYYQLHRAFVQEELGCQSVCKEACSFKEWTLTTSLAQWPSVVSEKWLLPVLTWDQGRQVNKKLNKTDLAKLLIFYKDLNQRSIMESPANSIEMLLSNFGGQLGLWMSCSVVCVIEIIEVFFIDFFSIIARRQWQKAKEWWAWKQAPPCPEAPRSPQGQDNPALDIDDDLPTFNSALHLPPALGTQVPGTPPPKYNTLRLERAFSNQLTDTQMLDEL

On to “FKGFVGKEALREILTFWLRFNNTEMDSKPLRTRANPPSKGGRE (Ac-FKGFVGKEALREILTFWLRFNNTEMDSKPLRTRANPPSKGGRE-NH2) [scrambled peptide, reference compound]”, for which the results for the “inhibition of amiloride sensitive short circuit currents” value in assay [1] (increasing concentrations of peptide) and in assay [2] were “minimal effect; also recorded: failed to inhibit; also recorded: only a slight inhibition” and “minimal effect; also recorded: failed to inhibit”, respectively.

As for “PLTQPRPRLADHNPLSARRRPLPAGP (Ac-PLTQPRPRLADHNPLSARRRPLPAGP-NH2) [SCR, reference compound]”, the “inhibition of Isc” value in assay [1] (peptide 50 μM) and in assay [3] was “did not inhibit” each time.

As for LPHPLQRL [8-residue fragment LPHPLQRL of α-26], the “IC50, inhibition of mouse ENaCs expressed in oocytes” value in assay [4] was around 1000 nM.

Consider Ac-DLRGALPHPLQRLRTPPPPNPARSAR-NH2, for which, in assay [5], the “IC50, inhibition of amiloride-sensitive short circuit current (Isc) in mpkCCDc14 monolayers (FIG. 5B)” value turned out to be 100000 nM. In assay [4], the “IC50, inhibition of amiloride-sensitive whole cell Na+ current in oocytes, holding potential -20 mV” value came to 2900 nM; the “IC50, inhibition of amiloride-sensitive whole cell Na+ current in oocytes, holding potential -100 mV” value turned out to be 2900 nM; the “IC50, inhibition of amiloride-sensitive whole cell Na+ current, two-electrode voltage clamp in Xenopus oocytes (FIG. 3A; holding potential -60 mV, value repeated in the same paragraph)” value came to 2800 nM. In assay [6], the “IC50, inhibition of amiloride-sensitive short circuit current (Isc) in HAE monolayers (FIG. 5A)” value worked out at 46000 nM.

Take Ac-EAGSMRSTWEGTPPRFLNLIPLLVFNENEKGKARDFFTGRKRK-NH2 [γ-43, synthetic 43-residue peptide corresponding to the tract Glu144-Lys186 of mouse γ ENaC]: in assay [5], the “IC50, inhibition of amiloride sensitive short circuit currents in mpkCCDc14 cells (FIG. 6B)” value came out at 3200 nM and the “IC50, inhibition of short circuit currents in mouse CCD cells (FIG. 18B)” value was found to be 3200 nM. Also, in assay [6], the “IC50, inhibition of amiloride sensitive short circuit currents in primary HAE cells (FIG. 7)” value is 1900 nM and the “IC50, inhibition of short circuit currents in primary cultures of HAE cells (FIG. 18C)” value is 2000 nM.
